In the Human Domainome abundance scans (Beltran et al. 2025):

B1: GA-binding protein alpha chain, residues 172 to 250; numbered along this chain, Q06546 (parent)
chain: GYRKEQERLGIPYDPIQWSTDQVLHWVVWVMKEFSMTDIDLTTLNISGRELCSLNQEDFFQRVPRGEILWSHLELLRKY

Variants of: B1
Assay: abundance fitness (aPCA) (normalised: wild type 0, dead -1); higher = more abundant; growth selection in yeast, the domain comes from the species named
Settings: Homo sapiens

Abundance fitness, by site and new letter:
G48: W -0.84 | M -0.99 | K -0.951 | D -0.804 | L -0.982 | T -0.813 | H -0.305 | C -0.919 | F -0.796 | V -0.884 | A -0.788 | S -0.804 | P -0.633
T37: Q -0.009 | N -0.027 | V -0.1 | S -0.07 | C -0.044 | M -0.028 | K 0.039 | A -0.03 | R -0.033 | I -0.256 | W -0.115 | H -0.037 | F -0.019 | G -0.004 | D -0.22 | P 0.014 | E 0.017
N55: T -0.025 | Y -0.274 | V -0.148 | M -0.291 | G -0.02 | C -0.124 | W -0.782 | D 0.008 | F -0.712 | H -0.124 | R -0.014 | A -0.065 | L -0.252 | I -0.244 | P -0.039 | K -0.189 | E -0.037 | S 0.012
N45: A 0.003 | Q -0.086 | W -0.276 | P -0.373 | E -0.039 | R -0.038 | C -0.063 | S -0.019 | M -0.054 | L -0.195 | Y -0.191 | K 0.032 | I -0.251 | V -0.122 | H 0.015 | T -0.01 | F -0.348 | D -0.148
R49: T -0.085 | F -0.113 | H -0.152 | D -0.1 | A 0.006 | L -0.072 | M 0.042 | P 0.001 | K -0.086 | N -0.257 | Y -0.077 | W -0.143 | G -0.125 | V -0.082 | C -0.109 | I -0.203 | S -0.006 | Q -0.021 | E 0.041
S53: W -0.381 | C -0.061 | G -0.068 | M -0.121 | N -0.033 | T -0.144 | R -0.057 | P -0.522 | H -0.171 | Q -0.085 | D 0.076 | A -0.063 | V -0.331 | L -0.108 | F -0.269
D38: Y -0.261 | I -0.626 | G -0.031 | S -0.063 | V -0.364 | K -0.091 | R -0.168 | F -0.492 | H -0.055 | E 0.03 | N -0.082 | T -0.08 | M -0.364 | P -0.009 | A -0.154 | Q -0.099 | W -0.149
T42: A -0.004 | F -0.215 | V -0.122 | H -0.075 | L -0.162 | C -0.051 | D -0.011 | P -0.106 | R -0.014 | Q -0.032 | Y -0.1 | S -0.011 | N -0.083 | I -0.181 | K -0.131
I39: V 0.037 | H -0.06 | C -0.042 | W -0.145 | Q -0.22 | M -0.021 | R -0.281 | Y -0.317 | K -0.244 | A -0.192 | D -0.288 | N -0.07 | T -0.035 | F -0.011 | P -0.17 | G -0.185 | E -0.118 | S -0.275
D40: K -0.23 | P -0.111 | N -0.043 | T -0.263 | G -0.239 | Q -0.268 | I -0.533 | V -0.44 | H -0.223 | R -0.292 | A -0.226 | E -0.112 | Y -0.698 | M -0.543 | C -0.281 | W -0.989 | S -0.124
